These results are taken from US20260049138A1 (Chugai, published 2026).

The experiment deals with T1, CD3ε homodimer protein (human, UniProt P07766 23-126, limits assumed, sulfo-tag or biotin label in the ECL assays; amine-coupled to the chip in SPR).
T1 construct: also called human CD3ε homodimer protein; CD3 (CD3ε)
In words: SPR Biacore T200; CD3ε homodimer on CM4 chip.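 Also: Single-residue variant antibodies injected as analyte over CD3ε homodimer immobilized by amine coupling, run at 25 °C in HBS-EP+ buffer.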 For orientation: Surface plasmon resonance follows binding to a sensor surface in real time, without labels.

T1 sequence (P07766 23-126 limits assumed): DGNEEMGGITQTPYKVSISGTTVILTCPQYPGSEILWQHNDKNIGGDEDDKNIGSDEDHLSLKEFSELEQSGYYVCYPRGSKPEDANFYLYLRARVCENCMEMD

B1: CE115HA000 N54S one-arm antibody (antibody, human IgG1, kappa, L234A L235A, N297A, name in Kabat numbering)
heavy: QVQLVESGGGVVQPGRSLRLSCAASGFTFSNAWMHWVRQAPGKGLEWVAQIKAKSNSYATYYAESVKGRFTISRDDSKNSLYLQMNSLKTEDTAVYYCRYVHYGAYYGVDAWGQGTTVTVSSASTKGPSVFPLAPSSKSTSGGTAALGCLVKDYFPEPVTVSWNSGALTSGVHTFPAVLQSSGLYSLSSVVTVPSSSLGTQTYICNVNHKPSNTKVDKKVEPKSCDKTHTCPPCPAPEAAGGPSVFLFPPKPKDTLMISRTPEVTCVVVDVSHEDPEVKFNWYVDGVEVHNAKTKPREEQYASTYRVVSVLTVLHQDWLNGKEYKCKVSNKALPAPIEKTISKAKGQPREPQVYTLPPSRCELTKNQVSLSCAVKGFYPSDIAVEWESNGQPENNYKTTPPVLDSDGSFFLVSKLTVDKSRWQQGNVFSCSVMHEALHNHYTQKSLSLSPDYKDDDDK
chain: EPKSSDKTHTCPPCPAPELLGGPSVFLFPPKPKDTLMISRTPEVTCVVVDVSHEDPEVKFNWYVDGVEVHNAKTKPREEQYNSTYRVVSVLTVLHQDWLNGKEYKCKVSNKALPAPIEKTISKAKGQPREPQVCTLPPSRDELTKNQVSLWCLVKGFYPSDIAVEWESNGQPENNYKTTPPVLDSDGSFFLYSKLTVDKSRWQQGNVFSCSVMHEALHNRYTQKSLSLSP
light: DIVMTQSPLSLPVTPGEPASISCRSSQSLVHSNRNTYLHWYQQKPGQAPRLLIYKVSNRFSGVPDRFSGSGSGTDFTLKISRVEAEDVGVYYCGQGTQVPYTFGQGTKLEIKRTVAAPSVFIFPPSDEQLKSGTASVVCLLNNFYPREAKVQWKVDNALQSGNSQESVTEQDSKDSTYSLSSTLTLSKADYEKHKVYACEVTHQGLSSPVTKSFNRGEC
In the case of B1, the “ratio of amounts bound Z=Y/X (altered form / CE115HA000)” value is 0.84.

B2: CE115HA000 Q50A one-arm antibody (antibody, human IgG1, kappa, L234A L235A, N297A, name in Kabat numbering)
heavy: QVQLVESGGGVVQPGRSLRLSCAASGFTFSNAWMHWVRQAPGKGLEWVAAIKAKSNNYATYYAESVKGRFTISRDDSKNSLYLQMNSLKTEDTAVYYCRYVHYGAYYGVDAWGQGTTVTVSSASTKGPSVFPLAPSSKSTSGGTAALGCLVKDYFPEPVTVSWNSGALTSGVHTFPAVLQSSGLYSLSSVVTVPSSSLGTQTYICNVNHKPSNTKVDKKVEPKSCDKTHTCPPCPAPEAAGGPSVFLFPPKPKDTLMISRTPEVTCVVVDVSHEDPEVKFNWYVDGVEVHNAKTKPREEQYASTYRVVSVLTVLHQDWLNGKEYKCKVSNKALPAPIEKTISKAKGQPREPQVYTLPPSRCELTKNQVSLSCAVKGFYPSDIAVEWESNGQPENNYKTTPPVLDSDGSFFLVSKLTVDKSRWQQGNVFSCSVMHEALHNHYTQKSLSLSPDYKDDDDK
chain: EPKSSDKTHTCPPCPAPELLGGPSVFLFPPKPKDTLMISRTPEVTCVVVDVSHEDPEVKFNWYVDGVEVHNAKTKPREEQYNSTYRVVSVLTVLHQDWLNGKEYKCKVSNKALPAPIEKTISKAKGQPREPQVCTLPPSRDELTKNQVSLWCLVKGFYPSDIAVEWESNGQPENNYKTTPPVLDSDGSFFLYSKLTVDKSRWQQGNVFSCSVMHEALHNRYTQKSLSLSP
light: DIVMTQSPLSLPVTPGEPASISCRSSQSLVHSNRNTYLHWYQQKPGQAPRLLIYKVSNRFSGVPDRFSGSGSGTDFTLKISRVEAEDVGVYYCGQGTQVPYTFGQGTKLEIKRTVAAPSVFIFPPSDEQLKSGTASVVCLLNNFYPREAKVQWKVDNALQSGNSQESVTEQDSKDSTYSLSSTLTLSKADYEKHKVYACEVTHQGLSSPVTKSFNRGEC
As to B2, the “ratio of amounts bound Z=Y/X (altered form / CE115HA000)” value was found to be 0.24.

B3: CE115HA000 N82aD one-arm antibody (antibody, human IgG1, kappa, L234A L235A, N297A, name in Kabat numbering)
heavy: QVQLVESGGGVVQPGRSLRLSCAASGFTFSNAWMHWVRQAPGKGLEWVAQIKAKSNNYATYYAESVKGRFTISRDDSKNSLYLQMDSLKTEDTAVYYCRYVHYGAYYGVDAWGQGTTVTVSSASTKGPSVFPLAPSSKSTSGGTAALGCLVKDYFPEPVTVSWNSGALTSGVHTFPAVLQSSGLYSLSSVVTVPSSSLGTQTYICNVNHKPSNTKVDKKVEPKSCDKTHTCPPCPAPEAAGGPSVFLFPPKPKDTLMISRTPEVTCVVVDVSHEDPEVKFNWYVDGVEVHNAKTKPREEQYASTYRVVSVLTVLHQDWLNGKEYKCKVSNKALPAPIEKTISKAKGQPREPQVYTLPPSRCELTKNQVSLSCAVKGFYPSDIAVEWESNGQPENNYKTTPPVLDSDGSFFLVSKLTVDKSRWQQGNVFSCSVMHEALHNHYTQKSLSLSPDYKDDDDK
chain: EPKSSDKTHTCPPCPAPELLGGPSVFLFPPKPKDTLMISRTPEVTCVVVDVSHEDPEVKFNWYVDGVEVHNAKTKPREEQYNSTYRVVSVLTVLHQDWLNGKEYKCKVSNKALPAPIEKTISKAKGQPREPQVCTLPPSRDELTKNQVSLWCLVKGFYPSDIAVEWESNGQPENNYKTTPPVLDSDGSFFLYSKLTVDKSRWQQGNVFSCSVMHEALHNRYTQKSLSLSP
light: DIVMTQSPLSLPVTPGEPASISCRSSQSLVHSNRNTYLHWYQQKPGQAPRLLIYKVSNRFSGVPDRFSGSGSGTDFTLKISRVEAEDVGVYYCGQGTQVPYTFGQGTKLEIKRTVAAPSVFIFPPSDEQLKSGTASVVCLLNNFYPREAKVQWKVDNALQSGNSQESVTEQDSKDSTYSLSSTLTLSKADYEKHKVYACEVTHQGLSSPVTKSFNRGEC
On to B3, for which the “ratio of amounts bound Z=Y/X (altered form / CE115HA000)” value was 0.73.

B4: CE115HA000 Q50D one-arm antibody (antibody, human IgG1, kappa, L234A L235A, N297A, name in Kabat numbering)
heavy: QVQLVESGGGVVQPGRSLRLSCAASGFTFSNAWMHWVRQAPGKGLEWVADIKAKSNNYATYYAESVKGRFTISRDDSKNSLYLQMNSLKTEDTAVYYCRYVHYGAYYGVDAWGQGTTVTVSSASTKGPSVFPLAPSSKSTSGGTAALGCLVKDYFPEPVTVSWNSGALTSGVHTFPAVLQSSGLYSLSSVVTVPSSSLGTQTYICNVNHKPSNTKVDKKVEPKSCDKTHTCPPCPAPEAAGGPSVFLFPPKPKDTLMISRTPEVTCVVVDVSHEDPEVKFNWYVDGVEVHNAKTKPREEQYASTYRVVSVLTVLHQDWLNGKEYKCKVSNKALPAPIEKTISKAKGQPREPQVYTLPPSRCELTKNQVSLSCAVKGFYPSDIAVEWESNGQPENNYKTTPPVLDSDGSFFLVSKLTVDKSRWQQGNVFSCSVMHEALHNHYTQKSLSLSPDYKDDDDK
chain: EPKSSDKTHTCPPCPAPELLGGPSVFLFPPKPKDTLMISRTPEVTCVVVDVSHEDPEVKFNWYVDGVEVHNAKTKPREEQYNSTYRVVSVLTVLHQDWLNGKEYKCKVSNKALPAPIEKTISKAKGQPREPQVCTLPPSRDELTKNQVSLWCLVKGFYPSDIAVEWESNGQPENNYKTTPPVLDSDGSFFLYSKLTVDKSRWQQGNVFSCSVMHEALHNRYTQKSLSLSP
light: DIVMTQSPLSLPVTPGEPASISCRSSQSLVHSNRNTYLHWYQQKPGQAPRLLIYKVSNRFSGVPDRFSGSGSGTDFTLKISRVEAEDVGVYYCGQGTQVPYTFGQGTKLEIKRTVAAPSVFIFPPSDEQLKSGTASVVCLLNNFYPREAKVQWKVDNALQSGNSQESVTEQDSKDSTYSLSSTLTLSKADYEKHKVYACEVTHQGLSSPVTKSFNRGEC
Take B4: the “ratio of amounts bound Z=Y/X (altered form / CE115HA000)” value was 0.27.

B5: CE115HA000 N76S one-arm antibody (antibody, human IgG1, kappa, L234A L235A, N297A, name in Kabat numbering)
heavy: QVQLVESGGGVVQPGRSLRLSCAASGFTFSNAWMHWVRQAPGKGLEWVAQIKAKSNNYATYYAESVKGRFTISRDDSKSSLYLQMNSLKTEDTAVYYCRYVHYGAYYGVDAWGQGTTVTVSSASTKGPSVFPLAPSSKSTSGGTAALGCLVKDYFPEPVTVSWNSGALTSGVHTFPAVLQSSGLYSLSSVVTVPSSSLGTQTYICNVNHKPSNTKVDKKVEPKSCDKTHTCPPCPAPEAAGGPSVFLFPPKPKDTLMISRTPEVTCVVVDVSHEDPEVKFNWYVDGVEVHNAKTKPREEQYASTYRVVSVLTVLHQDWLNGKEYKCKVSNKALPAPIEKTISKAKGQPREPQVYTLPPSRCELTKNQVSLSCAVKGFYPSDIAVEWESNGQPENNYKTTPPVLDSDGSFFLVSKLTVDKSRWQQGNVFSCSVMHEALHNHYTQKSLSLSPDYKDDDDK
chain: EPKSSDKTHTCPPCPAPELLGGPSVFLFPPKPKDTLMISRTPEVTCVVVDVSHEDPEVKFNWYVDGVEVHNAKTKPREEQYNSTYRVVSVLTVLHQDWLNGKEYKCKVSNKALPAPIEKTISKAKGQPREPQVCTLPPSRDELTKNQVSLWCLVKGFYPSDIAVEWESNGQPENNYKTTPPVLDSDGSFFLYSKLTVDKSRWQQGNVFSCSVMHEALHNRYTQKSLSLSP
light: DIVMTQSPLSLPVTPGEPASISCRSSQSLVHSNRNTYLHWYQQKPGQAPRLLIYKVSNRFSGVPDRFSGSGSGTDFTLKISRVEAEDVGVYYCGQGTQVPYTFGQGTKLEIKRTVAAPSVFIFPPSDEQLKSGTASVVCLLNNFYPREAKVQWKVDNALQSGNSQESVTEQDSKDSTYSLSSTLTLSKADYEKHKVYACEVTHQGLSSPVTKSFNRGEC
With B5, the “ratio of amounts bound Z=Y/X (altered form / CE115HA000)” value turned out to be 0.92.

B6: CE115HA000 N54Y one-arm antibody (antibody, human IgG1, kappa, L234A L235A, N297A, name in Kabat numbering)
heavy: QVQLVESGGGVVQPGRSLRLSCAASGFTFSNAWMHWVRQAPGKGLEWVAQIKAKSNYYATYYAESVKGRFTISRDDSKNSLYLQMNSLKTEDTAVYYCRYVHYGAYYGVDAWGQGTTVTVSSASTKGPSVFPLAPSSKSTSGGTAALGCLVKDYFPEPVTVSWNSGALTSGVHTFPAVLQSSGLYSLSSVVTVPSSSLGTQTYICNVNHKPSNTKVDKKVEPKSCDKTHTCPPCPAPEAAGGPSVFLFPPKPKDTLMISRTPEVTCVVVDVSHEDPEVKFNWYVDGVEVHNAKTKPREEQYASTYRVVSVLTVLHQDWLNGKEYKCKVSNKALPAPIEKTISKAKGQPREPQVYTLPPSRCELTKNQVSLSCAVKGFYPSDIAVEWESNGQPENNYKTTPPVLDSDGSFFLVSKLTVDKSRWQQGNVFSCSVMHEALHNHYTQKSLSLSPDYKDDDDK
chain: EPKSSDKTHTCPPCPAPELLGGPSVFLFPPKPKDTLMISRTPEVTCVVVDVSHEDPEVKFNWYVDGVEVHNAKTKPREEQYNSTYRVVSVLTVLHQDWLNGKEYKCKVSNKALPAPIEKTISKAKGQPREPQVCTLPPSRDELTKNQVSLWCLVKGFYPSDIAVEWESNGQPENNYKTTPPVLDSDGSFFLYSKLTVDKSRWQQGNVFSCSVMHEALHNRYTQKSLSLSP
light: DIVMTQSPLSLPVTPGEPASISCRSSQSLVHSNRNTYLHWYQQKPGQAPRLLIYKVSNRFSGVPDRFSGSGSGTDFTLKISRVEAEDVGVYYCGQGTQVPYTFGQGTKLEIKRTVAAPSVFIFPPSDEQLKSGTASVVCLLNNFYPREAKVQWKVDNALQSGNSQESVTEQDSKDSTYSLSSTLTLSKADYEKHKVYACEVTHQGLSSPVTKSFNRGEC
For B6, the “ratio of amounts bound Z=Y/X (altered form / CE115HA000)” value came out at 1.03.
